Test results taken from paper PMC6331805.

Target: T1, NtcA (Synechocystis sp. PCC 6803) (UniProt P33779)
T1 sequence: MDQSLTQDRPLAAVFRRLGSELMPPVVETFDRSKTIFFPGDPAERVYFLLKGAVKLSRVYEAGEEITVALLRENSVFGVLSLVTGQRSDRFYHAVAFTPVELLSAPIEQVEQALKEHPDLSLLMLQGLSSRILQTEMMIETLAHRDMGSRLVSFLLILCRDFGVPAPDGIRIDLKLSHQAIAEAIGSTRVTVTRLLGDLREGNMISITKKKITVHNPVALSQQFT
Assay: EMSA
Conditions: Roche DIG Gel Shift kit buffer (composition and pH not stated), 2 ng DIG-labeled DNA, 15 min at room temperature, native 8% PAGE; 5 mM MgCl2 in 2-oxoglutarate …

Sequence: ACTCTGACGTACCCATTGACGGGGTAACTTACTCAAGCTAAAAGGTAAAGAATTGTAAACTAAGTTAATTATCCCAGGAAATCCCATGAG (double strand) [scpE promoter fragment 90 bp]
- binding: binds

Sequence: TTTGAGCCTAACATTATCCTCCCGTTGCCTTTTTCACCACAGACTTGCCATGGGCGCAATACTCTGTTACATTTATTTACATAGACAACCCTCCCAGCTCGTAATTACAT (double strand) [scpB promoter fragment 110 bp]
- binding: binds
